One block for each binder: values may come before it.
Biological target: FtsH with a C-terminal FLAG epitope, chromosomally encoded (E. coli, UniProt P0AAI3 1-644)
Assay: cryo-EM structure

FtsH with a C-terminal FLAG epitope, chromosomally encoded, sequence (P0AAI3 whole entry): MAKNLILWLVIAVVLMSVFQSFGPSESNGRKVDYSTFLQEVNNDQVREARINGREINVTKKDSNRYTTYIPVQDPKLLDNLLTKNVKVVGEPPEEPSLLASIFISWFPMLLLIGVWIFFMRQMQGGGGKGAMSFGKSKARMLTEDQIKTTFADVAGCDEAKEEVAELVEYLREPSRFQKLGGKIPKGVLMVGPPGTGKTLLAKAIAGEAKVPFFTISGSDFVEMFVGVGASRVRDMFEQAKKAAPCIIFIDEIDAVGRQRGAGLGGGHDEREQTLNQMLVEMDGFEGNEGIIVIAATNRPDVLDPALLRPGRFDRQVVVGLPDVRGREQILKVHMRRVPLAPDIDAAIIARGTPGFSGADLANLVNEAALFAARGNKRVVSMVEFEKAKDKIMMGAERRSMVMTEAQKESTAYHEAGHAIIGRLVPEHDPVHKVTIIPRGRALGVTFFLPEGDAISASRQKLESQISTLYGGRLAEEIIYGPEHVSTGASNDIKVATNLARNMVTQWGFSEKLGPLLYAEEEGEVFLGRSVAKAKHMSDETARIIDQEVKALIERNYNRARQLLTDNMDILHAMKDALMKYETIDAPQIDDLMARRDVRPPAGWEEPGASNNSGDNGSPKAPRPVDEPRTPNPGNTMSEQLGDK

binding result: binds
B1: HflK, endogenous (natural protein, E. coli (endogenous in BL21(DE3)), UniProt P0ABC7 1-419, looked up)
chain: MAWNQPGNNGQDRDPWGSSKPGGNSEGNGNKGGRDQGPPDLDDIFRKLSKKLGGLGGGKGTGSGGGSSSQGPRPQLGGRVVTIAAAAIVIIWAASGFYTIKEAERGVVTRFGKFSHLVEPGLNWKPTFIDEVKPVNVEAVRELAASGVMLTSDENVVRVEMNVQYRVTNPEKYLYSVTSPDDSLRQATDSALRGVIGKYTMDRILTEGRTVIRSDTQRELEETIRPYDMGITLLDVNFQAARPPEEVKAAFDDAIAARENEQQYIREAEAYTNEVQPRANGQAQRILEEARAYKAQTILEAQGEVARFAKLLPEYKAAPEITRERLYIETMEKVLGNTRKVLVNDKGGNLMVLPLDQMLKGGNAPAAKSDNGASNLLRLPPASSSTTSGASNTSSTSQGDIMDQRRANAQRNDYQRQGE

binding result: binds
B2: HflC, endogenous (natural protein, E. coli (endogenous in BL21(DE3)), UniProt P0ABC3 1-334, looked up)
chain: MRKSVIAIIIIVLVVLYMSVFVVKEGERGITLRFGKVLRDDDNKPLVYEPGLHFKIPFIETVKMLDARIQTMDNQADRFVTKEKKDLIVDSYIKWRISDFSRYYLATGGGDISQAEVLLKRKFSDRLRSEIGRLDVKDIVTDSRGRLTLEVRDALNSGSAGTEDEVTTPAADNAIAEAAERVTAETKGKVPVINPNSMAALGIEVVDVRIKQINLPTEVSEAIYNRMRAEREAVARRHRSQGQEEAEKLRATADYEVTRTLAEAERQGRIMRGEGDAEAAKLFADAFSKDPDFYAFIRSLRAYENSFSGNQDVMVMSPDSDFFRYMKTPTSATR

Source: article PMC11326279 (bioRxiv, 2024)
